B1: NIgG4B2A1(G4S)3 (Fc fusion)
chain 1: QVQLVESGGGLVQAGGSLRLSCAVFGSTFSNNVADWYRQAPGKQRELVARISASGATREYGDSVKGRFTISRDDAKNTMYLQMNNLKPEDTAVYRCHKIEWEDLSRKDYWGQGTQVTVSGGGGSGGGGSGGGGSGPPCPPCPAPEFLGGPSVFLFPPKPKDTLMISRTPEVTCVVVDVSQEDPEVQFNWYVDGVEVHNAKTKPREEQFNSTYRVVSVLTVLHQDWLNGKEYKCKVSNKGLPSSIEKTISKAKGQPREPQVYTLPPCQEEMTKNQVSLWCLVKGFYPSDIAVEWESNGQPENNYKTTPPVLDSDGSFFLYSRLTVDKSRWQEGNVFSCSVMHEALHNHYTQKSLSLSLGK
chain 2: EVQLLESGGGLVQPGGSLRLSCAASGFTFGNYDMAWVRQAPGKRPEWVSSIDTGGDITHYADSVKGRFTISRDNAKNTLYLQMNSLRPEDTAVYWCATDEEYALGPNEFDYYGQGTLVTVSSGGGGSGGGGSGGGGSGPPCPPCPAPEFLGGPSVFLFPPKPKDTLMISRTPEVTCVVVDVSQEDPEVQFNWYVDGVEVHNAKTKPREEQFNSTYRVVSVLTVLHQDWLNGKEYKCKVSNKGLPSSIEKTISKAKGQPREPQVCTLPPSQEEMTKNQVSLSCAVKGFYPSDIAVEWESNGQPENNYKTTPPVLDSDGSFFLVSRLTVDKSRWQEGNVFSCSVMHEALHNHYTQKSLSLSLGK
B2: NIgG4B2A1(RS) (Fc fusion)
chain 1: QVQLVESGGGLVQAGGSLRLSCAVFGSTFSNNVADWYRQAPGKQRELVARISASGATREYGDSVKGRFTISRDDAKNTMYLQMNNLKPEDTAVYRCHKIEWEDLSRKDYWGQGTQVTVSRSGPPCPPCPAPEFLGGPSVFLFPPKPKDTLMISRTPEVTCVVVDVSQEDPEVQFNWYVDGVEVHNAKTKPREEQFNSTYRVVSVLTVLHQDWLNGKEYKCKVSNKGLPSSIEKTISKAKGQPREPQVYTLPPCQEEMTKNQVSLWCLVKGFYPSDIAVEWESNGQPENNYKTTPPVLDSDGSFFLYSRLTVDKSRWQEGNVFSCSVMHEALHNHYTQKSLSLSLGK
chain 2: EVQLLESGGGLVQPGGSLRLSCAASGFTFGNYDMAWVRQAPGKRPEWVSSIDTGGDITHYADSVKGRFTISRDNAKNTLYLQMNSLRPEDTAVYWCATDEEYALGPNEFDYYGQGTLVTVSSRSGPPCPPCPAPEFLGGPSVFLFPPKPKDTLMISRTPEVTCVVVDVSQEDPEVQFNWYVDGVEVHNAKTKPREEQFNSTYRVVSVLTVLHQDWLNGKEYKCKVSNKGLPSSIEKTISKAKGQPREPQVCTLPPSQEEMTKNQVSLSCAVKGFYPSDIAVEWESNGQPENNYKTTPPVLDSDGSFFLVSRLTVDKSRWQEGNVFSCSVMHEALHNHYTQKSLSLSLGK
B3: NIgG4B2A1(G4S)2 (Fc fusion)
chain 1: QVQLVESGGGLVQAGGSLRLSCAVFGSTFSNNVADWYRQAPGKQRELVARISASGATREYGDSVKGRFTISRDDAKNTMYLQMNNLKPEDTAVYRCHKIEWEDLSRKDYWGQGTQVTVSGGGGSGGGGSGPPCPPCPAPEFLGGPSVFLFPPKPKDTLMISRTPEVTCVVVDVSQEDPEVQFNWYVDGVEVHNAKTKPREEQFNSTYRVVSVLTVLHQDWLNGKEYKCKVSNKGLPSSIEKTISKAKGQPREPQVYTLPPCQEEMTKNQVSLWCLVKGFYPSDIAVEWESNGQPENNYKTTPPVLDSDGSFFLYSRLTVDKSRWQEGNVFSCSVMHEALHNHYTQKSLSLSLGK
chain 2: EVQLLESGGGLVQPGGSLRLSCAASGFTFGNYDMAWVRQAPGKRPEWVSSIDTGGDITHYADSVKGRFTISRDNAKNTLYLQMNSLRPEDTAVYWCATDEEYALGPNEFDYYGQGTLVTVSSGGGGSGGGGSGPPCPPCPAPEFLGGPSVFLFPPKPKDTLMISRTPEVTCVVVDVSQEDPEVQFNWYVDGVEVHNAKTKPREEQFNSTYRVVSVLTVLHQDWLNGKEYKCKVSNKGLPSSIEKTISKAKGQPREPQVCTLPPSQEEMTKNQVSLSCAVKGFYPSDIAVEWESNGQPENNYKTTPPVLDSDGSFFLVSRLTVDKSRWQEGNVFSCSVMHEALHNHYTQKSLSLSLGK
B4: CIgG4B2A1(RS) (Fc fusion)
chain 1: GPPCPPCPAPEFLGGPSVFLFPPKPKDTLMISRTPEVTCVVVDVSQEDPEVQFNWYVDGVEVHNAKTKPREEQFNSTYRVVSVLTVLHQDWLNGKEYKCKVSNKGLPSSIEKTISKAKGQPREPQVYTLPPCQEEMTKNQVSLWCLVKGFYPSDIAVEWESNGQPENNYKTTPPVLDSDGSFFLYSRLTVDKSRWQEGNVFSCSVMHEALHNHYTQKSLSLSLGKRSQVQLVESGGGLVQAGGSLRLSCAVFGSTFSNNVADWYRQAPGKQRELVARISASGATREYGDSVKGRFTISRDDAKNTMYLQMNNLKPEDTAVYRCHKIEWEDLSRKDYWGQGTQVTVS
chain 2: GPPCPPCPAPEFLGGPSVFLFPPKPKDTLMISRTPEVTCVVVDVSQEDPEVQFNWYVDGVEVHNAKTKPREEQFNSTYRVVSVLTVLHQDWLNGKEYKCKVSNKGLPSSIEKTISKAKGQPREPQVCTLPPSQEEMTKNQVSLSCAVKGFYPSDIAVEWESNGQPENNYKTTPPVLDSDGSFFLVSRLTVDKSRWQEGNVFSCSVMHEALHNHYTQKSLSLSLGKRSEVQLLESGGGLVQPGGSLRLSCAASGFTFGNYDMAWVRQAPGKRPEWVSSIDTGGDITHYADSVKGRFTISRDNAKNTLYLQMNSLRPEDTAVYWCATDEEYALGPNEFDYYGQGTLVTVSS
B5: CIgG4B1A2(G4S)3 (Fc fusion)
chain 1: GPPCPPCPAPEFLGGPSVFLFPPKPKDTLMISRTPEVTCVVVDVSQEDPEVQFNWYVDGVEVHNAKTKPREEQFNSTYRVVSVLTVLHQDWLNGKEYKCKVSNKGLPSSIEKTISKAKGQPREPQVYTLPPCQEEMTKNQVSLWCLVKGFYPSDIAVEWESNGQPENNYKTTPPVLDSDGSFFLYSRLTVDKSRWQEGNVFSCSVMHEALHNHYTQKSLSLSLGKGGGGSGGGGSGGGGSQVQLQESGGGLVQTGGSLRLSCAVHGRTFSNTGMGWFRQAPGNERQFVAIISPSGTSTYYADSVKGRFTISRDPAKNTVYLQMNSLKMDDTAVYYCAASYGSNWSTLRHQRRNEYDAWGQGTQVAVS
chain 2: GPPCPPCPAPEFLGGPSVFLFPPKPKDTLMISRTPEVTCVVVDVSQEDPEVQFNWYVDGVEVHNAKTKPREEQFNSTYRVVSVLTVLHQDWLNGKEYKCKVSNKGLPSSIEKTISKAKGQPREPQVCTLPPSQEEMTKNQVSLSCAVKGFYPSDIAVEWESNGQPENNYKTTPPVLDSDGSFFLVSRLTVDKSRWQEGNVFSCSVMHEALHNHYTQKSLSLSLGKGGGGSGGGGSGGGGSEVQLLESGGGLVQPGGSLRLSCAASGFRFGNYDMAWVRQAPGKRYEWVSSIDTGGDITHYADSVKGRFTISRDNAKNTLYLQMNSLRPEDTAEYWCATDEEYALGPNEFDYYGQGTLVTVS
B6: NIgG4B2A1(G4S)1 (Fc fusion)
chain 1: QVQLVESGGGLVQAGGSLRLSCAVFGSTFSNNVADWYRQAPGKQRELVARISASGATREYGDSVKGRFTISRDDAKNTMYLQMNNLKPEDTAVYRCHKIEWEDLSRKDYWGQGTQVTVSGGGGSGPPCPPCPAPEFLGGPSVFLFPPKPKDTLMISRTPEVTCVVVDVSQEDPEVQFNWYVDGVEVHNAKTKPREEQFNSTYRVVSVLTVLHQDWLNGKEYKCKVSNKGLPSSIEKTISKAKGQPREPQVYTLPPCQEEMTKNQVSLWCLVKGFYPSDIAVEWESNGQPENNYKTTPPVLDSDGSFFLYSRLTVDKSRWQEGNVFSCSVMHEALHNHYTQKSLSLSLGK
chain 2: EVQLLESGGGLVQPGGSLRLSCAASGFTFGNYDMAWVRQAPGKRPEWVSSIDTGGDITHYADSVKGRFTISRDNAKNTLYLQMNSLRPEDTAVYWCATDEEYALGPNEFDYYGQGTLVTVSSGGGGSGPPCPPCPAPEFLGGPSVFLFPPKPKDTLMISRTPEVTCVVVDVSQEDPEVQFNWYVDGVEVHNAKTKPREEQFNSTYRVVSVLTVLHQDWLNGKEYKCKVSNKGLPSSIEKTISKAKGQPREPQVCTLPPSQEEMTKNQVSLSCAVKGFYPSDIAVEWESNGQPENNYKTTPPVLDSDGSFFLVSRLTVDKSRWQEGNVFSCSVMHEALHNHYTQKSLSLSLGK

Each binder was assayed against mixture of three Der p 2 specific recombinant human IgE clones H10, H12, P4E (human) (UniProt P01854) (assay: RBL-SX38 IgE displacement, FACS).
Sequence of mixture of three Der p 2 specific recombinant human IgE clones H10, H12, P4E (human) (P01854 other isoform, or with tags, fused parts or gaps): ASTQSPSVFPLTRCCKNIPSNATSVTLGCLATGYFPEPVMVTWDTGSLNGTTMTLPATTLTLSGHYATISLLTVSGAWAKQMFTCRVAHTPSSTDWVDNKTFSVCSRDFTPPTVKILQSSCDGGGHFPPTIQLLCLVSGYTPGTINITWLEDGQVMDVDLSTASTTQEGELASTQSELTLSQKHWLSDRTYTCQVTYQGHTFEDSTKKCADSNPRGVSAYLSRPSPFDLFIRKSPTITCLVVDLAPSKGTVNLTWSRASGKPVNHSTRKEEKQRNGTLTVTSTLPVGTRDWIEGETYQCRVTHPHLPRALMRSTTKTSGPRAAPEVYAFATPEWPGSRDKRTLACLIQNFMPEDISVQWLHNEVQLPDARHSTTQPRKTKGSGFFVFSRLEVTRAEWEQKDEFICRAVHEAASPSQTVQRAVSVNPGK

Row | EC50 | Max effect/effect 1 µM | Binder
1 | 0.5 nM | 98% | B1
2 | 0.4 nM | 99% | B2
3 | 0.3 nM | 98% | B3
4 | 273 nM | 70% | B4
5 | 5.3 nM | 100% | B5
6 | 0.3 nM | 97% | B6
